This is an account of results in publication PMC3845372.

This series has as its target RecA (RecAEc) (Escherichia coli, UniProt P0A7G6 2-353). In words: fluorescence anisotropy.

RecA (RecAEc), sequence (P0A7G6 2-353): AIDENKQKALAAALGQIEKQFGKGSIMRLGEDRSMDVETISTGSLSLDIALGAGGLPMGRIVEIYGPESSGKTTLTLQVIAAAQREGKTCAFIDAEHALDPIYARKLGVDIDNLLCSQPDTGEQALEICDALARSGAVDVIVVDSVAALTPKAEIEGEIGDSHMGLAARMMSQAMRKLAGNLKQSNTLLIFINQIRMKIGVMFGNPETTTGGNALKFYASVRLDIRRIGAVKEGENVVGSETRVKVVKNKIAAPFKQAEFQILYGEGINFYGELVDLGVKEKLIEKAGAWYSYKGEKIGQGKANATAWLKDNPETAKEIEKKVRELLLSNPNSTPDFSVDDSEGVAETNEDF

B1: oligo dT16 (ssDNA)
DNA: TTTTTTTTTTTTTTTT
In the case of B1, the Kd was found to be 640 ± 260 nM.

B2: dimeric pilE G4 (NG16 core) (structured_DNA)
DNA: GGGTGGGTTGGGTGGG
As for B2, the binding result is “no binding”.
